Data on 6 molecules can be found in patent publication US20230250168A1 (MABWELL SHANGHAI BIOSCIENCE, published 2023).

What is called Kd is the concentration at which binding is half-saturated. Read a high Kd as lower affinity. In general, koff refers to the rate constant with which the complex falls apart. In general, kon refers to the rate constant with which the complex forms.

For test [1], the target named is human CLDN18.2 expressed on cell surfaces (human) (UniProt P56856). Briefly: cell-based or functional assay.
In test [2] the target is human CLDN18.1 expressed on cell surfaces (human) (UniProt P56856). Briefly: cell-based or functional assay.
For test [3], the target named is T1, antigen human CLDN18.2, His-tagged (human, UniProt P56856-2 1-261, limits assumed).
T1 construct: Recombinant antigen used in the Fortebio assay (His-tagged, captured on NTA probe); also called His-tagged antigen; not shown: His tag
The test is described as follows: BLI (Fortebio), His-tagged antigen on NTA probe; ratio to 16K15-xiIgG. As to the method:
(§1) The binding kinetic parameters of the chimeric antibodies and the humanized antibodies thereof to the antigen human CLDN18.2 were analyzed by a Fortebio (BLITZ pro1.1.0.28) instrument. Before performing the assay, an NTA bioprobe was soaked in PBS for 10 min, and the probe was then placed in PBS containing 100 nM antigen for 300 s to capture the His-tagged antigen. The probe was further subjected to a binding reaction with 100 nM antibody for a binding time of 400 s, and the probe was then transferred to PBS and subjected to a dissociation reaction for 600 s. When the assay was finished, data from which the response value of a blank control had been deducted were fitted to a 1:1 Langmuir binding model using software, and then the kinetic constants for antigen-antibody binding were calculated.

Test [4] has as its target T1, antigen human CLDN18.2, His-tagged. Briefly: BLI (Fortebio), His-tagged antigen on NTA probe, 100 nM antibody, 1:1 fit. On the procedure: as §1
Test [5] shares this target. The test is described as follows: SPR (BIAcore), antibody captured by anti-human Fc, antigen as analyte. On the procedure: Referring to the instructions provided in the Human Antibody Capture Kit (cat No. BR-1008-39, Lot 10261753) from GE Healthcare, the analytical channel and the control sample channel on a CM5 sensor chip were first saturated and coupled with the maximum amount of anti-human Fc antibody, then buffers containing anti-human CLDN18.2 chimeric antibodies, humanized antibodies or a control antibody IMAB362 at 7.5 μg/ml were allowed to flow through the analytical channel and uniformly distribute. Finally, antigen samples diluted in gradient (the initial concentration was 20 nM and diluted by 1:3 to get 8 concentrations, and the concentration 0.741 nM was set to be repeated) were allowed to flow through both the analytical channel and the sample channel, and the photoreactions upon the binding of antibody to antigen were measured. Subsequently, the association constant Kon and dissociation constant Koff and affinity constant KD of each antibody were finally obtained by instrument software fitting analysis.

The target in test [6] is T2, human CLDN18.2 expressed on cell surfaces (human, UniProt P56856-2 1-261). The test is described as follows: cell-based or functional assay.
Test [7] concerns the target T2, human CLDN18.2 expressed on cell …. Briefly: cell-based or functional assay. The source holds these as a separate data set.

B1: 16k15 (16K15-hz22) scfv, as CAR on T cells (scFv, not shown: small tags and cut ends)
scFv: EVQLVESGGGLVQPGGSLRLSCAGSGITLSTYAMSWVRQAPGKGLEWVSSIISGGITYYLDSVKGRFTISRDNAKNTLYLQMSSLRAEDTAVYYCARKYHGNALDYWGQGTLVTVSSGSTSGGGSGGGSGGGGSSDIVMTQSPDSLAVSLGERATINCKSSQSLLSSGNQRNYLTWYQQKPGQPPKKLIYWASTRESGVPDRFSGSGSGTDFTLTISSLQAEDLAVYYCQNNYFYPLTFGQGTKLEIK
For B1, the Human IFNγ detected in the supernatants of the culture systems (CAR-T cells with CHO-claduin18.2) in test [1] was 79200. In addition, in test [2], the Human IFNγ detected in the supernatants of the culture systems (CAR-T cells with CHO-claduin18.1) came out at 60300.

B2: 16K15-xiIgG (antibody, V domains shown)
VH: EVMLVESGGGLVRPGGSLKLSCAGSGITLSTYAMSWVRQTPERRLEWVASIISGGITYYLDSVKGRFTISRDNARNILYLQMSSLRSEDTAIYYCARKYHGNALDYWGQGTSVTVSL
VL: DIVMTQSPSSLPVTAGETVTMRCKSSQSLLNSGNQRNYLTWYQRKPGQPPKKLIYWASTRESGVPDRFTGSGSGTDFTLTISGVQAEDLAVYYCQNNYFYPLTFGAGTKLELKR
notes: Murine variable regions on human IgG1 / kappa constant regions; also called 16K15 chimeric antibody
As for B2, in test [3], the “Koff/Koff(Xi-IgG)” value is 1. In test [4], binding was characterised by a dissociation constant (Kd) of 0.557 nM, the Response is 0.261, the koff is 0.000154 s⁻¹ and the on-rate (kon) came to 276000 M⁻¹ s⁻¹. In test [5], this molecule returned a dissociation constant Kd of 13.5 nM, an off-rate (koff) of 0.00144 s⁻¹ and a kon of 107000 M⁻¹ s⁻¹.

B3: 52E22 (52E22-hz12) scfv, as CAR on T cells (scFv, not shown: small tags and cut ends)
scFv: QIQLVQSGSELKKPGASVKVSCKASGYTLTNYGMNWVRQAPGQGLEWMGWIRPNTGEPTYAEDFKGRFVFSLDTSVATAYLQITSLKAEDTAVYYCARLYRGNTLDNWGQGTLVTVSSGSTSGGGSGGGSGGGGSSDIVMTQSPDSLAVSLGERATINCKSSQNLLSSGNQRNYLTWYQQKPGQPPKLLIYWASTRESGVPDRFSGSGSGTDFTLTISSLQAEDLAVYYCQQGYSFPFTFGQGTKLEIK
B3 yielded a Human IFNγ detected in the supernatants of the culture systems (CAR-T cells with CHO-claduin18.2) in test [1] of 78900. In test [2], this molecule displayed a Human IFNγ detected in the supernatants of the culture systems (CAR-T cells with CHO-claduin18.1) of 4540.

B4: 16K15-hz22 (antibody, human IgG1, V domains shown)
VH: EVQLVESGGGLVQPGGSLRLSCAGSGITLSTYAMSWVRQAPGKGLEWVSSIISGGITYYLDSVKGRFTISRDNAKNTLYLQMSSLRAEDTAVYYCARKYHGNALDYWGQGTLVTVSS
VL: DIVMTQSPDSLAVSLGERATINCKSSQSLLSSGNQRNYLTWYQQKPGQPPKKLIYWASTRESGVPDRFSGSGSGTDFTLTISSLQAEDLAVYYCQNNYFYPLTFGQGTKLEIK
notes: Humanized; also called 16K15-hz22 IgG; 16K15-22 IgG
Regarding B4, in test [3], the “Koff/Koff(Xi-IgG)” value was 1.86. In test [4], this molecule registered a dissociation constant Kd of 1.1 nM, a Response of 0.266, an off-rate constant (koff) of 0.000286 s⁻¹ and an on-rate constant (kon) of 259000 M⁻¹ s⁻¹. Moreover, in test [6], the “ADCC reporter EC50 (Jurkat NFAT-luciferase effector cells), BxPC3 target cells” value was determined as 0.176 nM; the “ADCC reporter EC50 (Jurkat NFAT-luciferase effector cells), CHOK1 target cells” value turned out to be 0.712 nM; the “ADCC reporter EC50 (Jurkat NFAT-luciferase effector cells), NCI-N87 target cells” value was determined as 0.0677 nM. Also, in test [5], the Kd was 9.85 nM, the koff was 0.000563 s⁻¹ and the association rate constant (kon) turned out to be 57100 M⁻¹ s⁻¹. In test [7], the “CDC EC50, BxPC3 cells stably expressing human CLDN18.2 (CCK-8)” value was 12.2 nM; the “CDC EC50, CHOK1 cells stably expressing human CLDN18.2 (CCK-8)” value turned out to be 5.2 nM; the “CDC EC50, NCI-N87 cells stably expressing human CLDN18.2 (CCK-8)” value was 17.4 nM.

B5: 16K15-hz11 (antibody, human IgG1, V domains shown)
VH: EVQLVESGGGLVQPGGSLRLSCAGSGITLSTYAMSWVRQAPGKGLEWVSSIISGGITYYLDSVKGRFTISRDNAKNSLYLQMNSLRAEDTAVYYCARKYHGNALDYWGQGTLVTVSS
VL: DIVMTQSPDSLAVSLGERATINCKSSQSLLNSGNQRNYLTWYQQKPGQPPKKLIYWASTRESGVPDRFSGSGSGTDFTLTISSLQAEDLAVYYCQNNYFYPLTFGQGTKLEIKR
notes: Only positions of reverse mutations are printed; copies: 2 + 2
In the case of B5, in test [3], the “Koff/Koff(Xi-IgG)” value turned out to be 0.65. Also, in test [4], the dissociation constant Kd turned out to be 0.535 nM, the Response worked out at 0.17, the koff is 0.0001 s⁻¹ and the kon was 188000 M⁻¹ s⁻¹.

B6: 8K13 (8K13-hz24) scfv, as CAR on T cells (scFv, not shown: small tags and cut ends)
scFv: QVQLVQSGAEVKKPGSSVKVSCKASGYAFSNYWMNWVRQAPGQGLEWMGQIYPGSGDTKYSGKFQSRVTITADKSTNTAYMELSSLRSEDTAVYYCARFYYGNVMDYWGQGTLVTVSSGSTSGGGSGGGSGGGGSSDIVLTQSPDSLAVSLGERATINCKSSQTLLSGGNQKNYLTWYQQKPGQPPKLLIYWASTRESGVPDRFSGSGSGTDFTLTISSLQAEDLAVYYCQQGYSYPLTFGQGTKLEIK
As for B6, in test [1], the Human IFNγ detected in the supernatants of the culture systems (CAR-T cells with CHO-claduin18.2) is 75500. Besides, in test [2], the Human IFNγ detected in the supernatants of the culture systems (CAR-T cells with CHO-claduin18.1) stood at 4670.
